In patent publication US20110110942A1:

Molecular target: p75 (Homo sapiens (Human)) (UniProt P08138)
Assay: ELISA, format not described

Sequence of UniProt P08138 (P08138 29-250 limits assumed): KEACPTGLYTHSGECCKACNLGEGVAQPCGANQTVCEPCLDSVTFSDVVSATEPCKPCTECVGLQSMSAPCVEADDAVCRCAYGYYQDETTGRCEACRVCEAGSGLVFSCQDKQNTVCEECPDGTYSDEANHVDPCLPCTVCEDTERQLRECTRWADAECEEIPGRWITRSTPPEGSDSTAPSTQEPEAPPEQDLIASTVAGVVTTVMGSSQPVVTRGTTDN

EC50: 300 nM
Substance: Amyloid Precursor Protein (from UniProt P05067 18-286) (ligand)
